# According to patent publication US7718413B2, “Glycosylation variants of BACE” (Elan Pharmaceuticals, Inc., priority 2003, dated 2010):
# Positions count from the first letter of the chain named. Numbers in names are those of the source. Where “and” joins values, the source holds several entries; their conditions need not be identical. Identical values can stand only once.
# B1: wild type: fully glycosylated soluble BACE truncated after residue 451 with Flag sequence (protein)
# chain: TQHGIRLPLRSGLGGAPLGLRLPRETDEEPEEPGRRGSFVEMVDNLRGKSGQGYYVEMTVGSPPQTLNILVDTGSSNFAVGAAPHPFLHRYYQRQLSSTYRDLRKGVYVPYTQGKWEGELGTDLVSIPHGPNVTVRANIAAITESDKFFINGSNWEGILGLAYAEIARPDDSLEPFFDSLVKQTHVPNLFSLQLCGAGFPLNQSEVLASVGGSMIIGGIDHSLYTGSLWYTPIRREWYYEVIIVRVEINGQDLKMDCKEYNYDKSIVDSGTTNLRLPKKVFEAAVKSIKAASSTEKFPDGFWLGEQLVCWQAGTTPWNIFPVISLYLMGEVTNQSFRITILPQQYLRPVEDVATSQDDCYKFAISQSSTGTVMGAVIMEGFYVVFDRARKRIGFAVSACHVHDEFRTAAVEGPFVTLDMEDCGYNIPQTD
# modifications: left off: small tags and cut ends
# B2: delta 2, 3: BACE variant S174I and N223A (SEQ ID NO:3), made on the 452Flag soluble truncated BACE template (protein)
# chain: ETDEEPEEPGRRGSFVEMVDNLRGKSGQGYYVEMTVGSPPQTLNILVDTGSSNFAVGAAPHPFLHRYYQRQLSSTYRDLRKGVYVPYTQGKWEGELGTDLVSIPHGPNVTVRANIAAITESDKFFINGINWEGILGLAYAEIARPDDSLEPFFDSLVKQTHVPNLFSLQLCGAGFPLAQSEVLASVGGSMIIGGIDHSLYTGSLWYTPIRREWYYEVIIVRVEINGQDLKMDCKEYNYDKSIVDSGTTNLRLPKKVFEAAVKSIKAASSTEKFPDGFWLGEQLVCWQAGTTPWNIFPVISLYLMGEVTNQSFRITILPQQYLRPVEDVATSQDDCYKFAISQSSTGTVMGAVIMEGFYVVFDRARKRIGFAVSACHVHDEFRTAAVEGPFVTLDMEDCGYNIPQTD
# modifications: Flag tag; Human BACE with serine to isoleucine (S174I) and asparagine to alanine (N223A) mutations.
# B3: delta 3: BACE variant N223A (SEQ ID NO:2), made on the 452Flag soluble truncated BACE template (protein)
# chain: B2 chain with I129S
# modifications: Flag tag; Human BACE with asparagine to alanine (N223A) mutation.
# Test system: MBP-C125Swe
# Experiment: β-Secretase assay: cleavage of substrate MBP-C125Swe, ELISA read-out
# Format: biochemical
# Details: group mean of 6 samples; 0.02 μL BACE, MBP-C125Swe 220 nM, one hour, 37° C., pH 4.5
# Source text: Peptide substrate MBP-C125Swe was used for all assays. MBP-C125Swe is a bacterial fusion protein containing maltose binding protein MBP fused to the C-terminal 125 amino acids of the Swedish variant (Lys670Asn, Met671Leu double mutation) of APP. Sinha et al (1999). The C-terminal 125 amino acids were cloned into the expression vector pMALc (New England Biolabs) and transfected into E. coli. The fusion proteins were induced and solubilized by sonication of the pelleted bacteria. The proteins were purified by affinity chromatography on amylose-agarose, made up to 3 M guanidine, and stored in 10 mM Tris, pH 7.5, 0.2% Triton X-100, and 0.15 M guanidine.
# All digests were done with 0.02 μL BACE (Δ3, 0.69 μM; Δ2,3 0.77 μM; wild type 0.66 μM) at 37° C. in a total volume of 50 μL 0.06% Triton X-100 and 20 mM sodium acetate, pH 4.5. Samples were incubated with MBP-C125Swe substrate (10 μg/mL, 220 nM) for one hour. Digests were assayed in an ELISA assay, capturing with antibody to MBP and detecting with biotinylated Sw192, a neo-epitope specific antibody recognizing the free C-terminal leucine of the N-terminal product of β-secretase cleavage of the APPSwe sequence. See Seubert. P. et al. Nature 361:260-263 (1993), and Knops, J. et al. J. Biol. Chem. 270:2419-2422 (1995). Product was allowed to bind for 24 hours at 4° C., then quantitated with streptavidin-horse radish peroxidase. Biotinylated peptide corresponding to the N-terminal cleavage product was synthesized and used as a standard.
# These values were converted from the above data by the following equation: nM product/hr (ng enzyme)×45 ng enzyme/pm enz× 1/220 nM substrate×⅓,660 sec/hr×50,000 nL/reaction.
row,Molecule,Cleavage Product
1,B1,85 pM and 90 pM
2,B2,109 pM and 108 pM
3,B3,119 pM and 126 pM

# Same assay, conditions: group mean; 0.02 μL BACE, MBP-C125Swe 220 nM, one hour, 37° C., pH 4.5
Molecule,Activity,Substrate Conversion
B1,"14,308 pM/h/ng enz and 15,177 pM/h/ng enz",4.05% and 4.30%
B2,"15,753 pM/h/ng enz and 15,662 pM/h/ng enz",5.19% and 5.16%
B3,"19,071 pM/h/ng enz and 20,173 pM/h/ng enz",5.68% and 6.01%
